Measurements as given in PMC4176178, “An evolutionarily conserved interaction of tumor suppressor protein Pdcd4 with the poly(A)-binding protein contributes to translation suppression by Pdcd4” (Nucleic Acids Research, 2014).

T1: GST-Pdcd4 (full-length human Pdcd4 fused to GST) (human, UniProt Q53EL6 1-469)
T1 construct: programmed cell death 4 (Pdcd4), human, full length; also called GST-Pdcd4-wt; pGex-6P2-hPdcd4wt; source: purified
T1 sequence (looked up): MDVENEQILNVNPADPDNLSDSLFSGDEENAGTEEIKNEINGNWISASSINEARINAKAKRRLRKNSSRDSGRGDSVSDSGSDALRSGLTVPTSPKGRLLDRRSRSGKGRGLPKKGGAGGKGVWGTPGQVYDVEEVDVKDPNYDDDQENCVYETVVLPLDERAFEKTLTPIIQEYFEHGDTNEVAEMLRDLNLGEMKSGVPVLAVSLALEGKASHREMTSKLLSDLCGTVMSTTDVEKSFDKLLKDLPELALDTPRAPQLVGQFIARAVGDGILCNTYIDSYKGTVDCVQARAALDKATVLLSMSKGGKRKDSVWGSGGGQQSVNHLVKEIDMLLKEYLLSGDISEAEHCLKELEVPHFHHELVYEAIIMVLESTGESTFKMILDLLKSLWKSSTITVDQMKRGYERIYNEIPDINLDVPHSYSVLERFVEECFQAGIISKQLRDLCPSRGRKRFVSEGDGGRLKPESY

B1: GST-Pdcd4-RBDstop (only the N-terminal RNA-binding domain of human Pdcd4) (domain or fragment, UniProt Q53EL6 1-154, looked up)
chain: MDVENEQILNVNPADPDNLSDSLFSGDEENAGTEEIKNEINGNWISASSINEARINAKAKRRLRKNSSRDSGRGDSVSDSGSDALRSGLTVPTSPKGRLLDRRSRSGKGRGLPKKGGAGGKGVWGTPGQVYDVEEVDVKDPNYDDDQENCVYET
notes: translation stop codon introduced at amino acid position 155; The last residue 154 follows from the stop codon at position 155; also called pGex-6P2-hPdcd4-RBDstop; source: purified
B2: mouse His-PABP-RRM1–4 (amino acids 1–375) (domain or fragment, UniProt P29341 1-375, looked up)
chain: MNPSAPSYPMASLYVGDLHPDVTEAMLYEKFSPAGPILSIRVCRDMITRRSLGYAYVNFQQPADAERALDTMNFDVIKGKPVRIMWSQRDPSLRKSGVGNIFIKNLDKSIDNKALYDTFSAFGNILSCKVVCDENGSKGYGFVHFETQEAAERAIEKMNGMLLNDRKVFVGRFKSRKEREAELGARAKEFTNVYIKNFGEDMDDERLKELFGKFGPALSVKVMTDESGKSKGFGFVSFERHEDAQKAVDEMNGKELNGKQIYVGRAQKKVERQTELKRKFEQMKQDRITRYQGVNLYVKNLDDGIDDERLRKEFSPFGTITSAKVMMEGGRSKGFGFVCFSSPEEATKAVTEMNGRIVATKPLYVALAQRKEERQ
notes: Vector was a gift from Lorna Waters; source: bacterially expressed, purified (Ni-NTA)

Key:
[1] = target: B2; assay: pull-down; GST fusion protein-loaded sepharose beads incubated with purified, bacterially expressed His-PABP-RRM1–4; western blotting with PABP antibodies or Coomassie staining; also in the absence or presence of 0.5 μg/ml RNase A; conditions: both partners purified
[2] = target: T1, GST-Pdcd4 (full-length human Pdcd4 …); assay: as above; conditions: both partners purified

Binder	binding result [1]	binding result [2]
B1	binds	
B2		binds
